According to US20150064134A1:

Assays:
Experiment in all cases: cell-based or functional assay
MuSK(h) (human) = MuSK(h) (human) (UniProt O15146)
Met(h) (human) = Met(h) (human) (UniProt P08581)
LIMK1(h) (human) = LIMK1(h) (human) (UniProt P53667)
PKCι(h) (human) = PKCι(h) (human) (UniProt P41743)
cKit(V654A)(h) (human) = cKit(V654A)(h) (human) (UniProt P10721)
[1] = target: EGFR(T790M,L858R)(h) (human) (UniProt P00533)
Flt3(h) (human) = target: T1, Flt3(h) (human) (UniProt P36888)
T1 sequence (looked up): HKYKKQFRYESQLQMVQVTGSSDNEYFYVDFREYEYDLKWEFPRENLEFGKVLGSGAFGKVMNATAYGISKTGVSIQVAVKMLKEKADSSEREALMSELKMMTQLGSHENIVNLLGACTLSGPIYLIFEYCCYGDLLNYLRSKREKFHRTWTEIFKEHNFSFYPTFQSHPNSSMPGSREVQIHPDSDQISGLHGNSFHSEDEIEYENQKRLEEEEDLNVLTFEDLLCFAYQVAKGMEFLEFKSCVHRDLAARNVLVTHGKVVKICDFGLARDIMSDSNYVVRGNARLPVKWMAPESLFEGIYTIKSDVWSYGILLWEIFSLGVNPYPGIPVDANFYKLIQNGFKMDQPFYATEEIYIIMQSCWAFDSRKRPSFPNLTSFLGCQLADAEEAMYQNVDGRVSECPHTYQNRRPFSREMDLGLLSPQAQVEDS

Ros(h) (human) = Ros(h) (human) (UniProt P08922)
EphA4(h) (human) = EphA4(h) (human) (UniProt P54764)
CaMKI(h) (human) = CaMKI(h) (human) (UniProt Q14012)
Plk3(h) (human) = Plk3(h) (human) (UniProt Q9H4B4)
TAO3(h) (human) = target: T2, TAO3(h) (human) (UniProt Q9H2K8)
T2 sequence (looked up): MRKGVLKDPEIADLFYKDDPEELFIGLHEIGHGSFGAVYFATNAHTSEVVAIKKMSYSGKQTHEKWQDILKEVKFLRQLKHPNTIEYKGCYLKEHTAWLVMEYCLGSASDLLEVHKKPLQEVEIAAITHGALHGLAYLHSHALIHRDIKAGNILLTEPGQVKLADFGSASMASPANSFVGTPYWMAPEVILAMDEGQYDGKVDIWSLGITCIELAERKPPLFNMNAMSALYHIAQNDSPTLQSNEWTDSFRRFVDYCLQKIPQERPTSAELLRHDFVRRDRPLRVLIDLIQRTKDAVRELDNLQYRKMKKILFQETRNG

Ret(h) (human) = target: T3, Ret(h) (human) (UniProt P07949)
T3 sequence (looked up): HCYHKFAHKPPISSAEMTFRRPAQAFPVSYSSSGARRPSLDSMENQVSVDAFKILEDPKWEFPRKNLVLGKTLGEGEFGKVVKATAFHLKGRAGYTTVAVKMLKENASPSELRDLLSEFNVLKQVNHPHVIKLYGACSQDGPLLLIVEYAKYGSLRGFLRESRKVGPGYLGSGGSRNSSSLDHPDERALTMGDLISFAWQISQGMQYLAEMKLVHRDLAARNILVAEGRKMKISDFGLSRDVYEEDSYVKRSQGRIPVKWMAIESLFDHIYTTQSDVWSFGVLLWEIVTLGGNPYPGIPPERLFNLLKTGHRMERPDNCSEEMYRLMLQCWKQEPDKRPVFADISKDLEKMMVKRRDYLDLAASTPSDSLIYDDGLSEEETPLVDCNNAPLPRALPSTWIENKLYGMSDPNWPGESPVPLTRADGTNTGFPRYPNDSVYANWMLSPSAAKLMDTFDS

FGFR4(h) (human) = FGFR4(h) (human) (UniProt P22455)
PKBγ(h) (human) = PKBγ(h) (human) (UniProt Q9Y243)
NEK3(h) (human) = target: T4, NEK3(h) (human) (UniProt P51956)
T4 sequence (looked up): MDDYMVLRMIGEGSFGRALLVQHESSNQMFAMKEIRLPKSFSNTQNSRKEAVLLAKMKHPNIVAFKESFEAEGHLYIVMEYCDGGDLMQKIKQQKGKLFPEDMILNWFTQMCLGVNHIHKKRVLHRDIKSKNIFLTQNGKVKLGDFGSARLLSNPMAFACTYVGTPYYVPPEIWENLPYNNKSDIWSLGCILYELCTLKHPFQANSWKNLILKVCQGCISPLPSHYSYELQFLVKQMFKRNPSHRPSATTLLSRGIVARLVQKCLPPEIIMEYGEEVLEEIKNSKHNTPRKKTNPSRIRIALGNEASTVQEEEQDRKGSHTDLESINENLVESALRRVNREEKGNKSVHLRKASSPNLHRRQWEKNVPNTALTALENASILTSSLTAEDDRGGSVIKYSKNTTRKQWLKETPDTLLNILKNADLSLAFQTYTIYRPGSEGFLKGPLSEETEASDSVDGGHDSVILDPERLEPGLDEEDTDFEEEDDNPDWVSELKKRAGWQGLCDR

Flt1(h) (human) = target: T5, Flt1(h) (human) (UniProt P17948)
T5 sequence (looked up): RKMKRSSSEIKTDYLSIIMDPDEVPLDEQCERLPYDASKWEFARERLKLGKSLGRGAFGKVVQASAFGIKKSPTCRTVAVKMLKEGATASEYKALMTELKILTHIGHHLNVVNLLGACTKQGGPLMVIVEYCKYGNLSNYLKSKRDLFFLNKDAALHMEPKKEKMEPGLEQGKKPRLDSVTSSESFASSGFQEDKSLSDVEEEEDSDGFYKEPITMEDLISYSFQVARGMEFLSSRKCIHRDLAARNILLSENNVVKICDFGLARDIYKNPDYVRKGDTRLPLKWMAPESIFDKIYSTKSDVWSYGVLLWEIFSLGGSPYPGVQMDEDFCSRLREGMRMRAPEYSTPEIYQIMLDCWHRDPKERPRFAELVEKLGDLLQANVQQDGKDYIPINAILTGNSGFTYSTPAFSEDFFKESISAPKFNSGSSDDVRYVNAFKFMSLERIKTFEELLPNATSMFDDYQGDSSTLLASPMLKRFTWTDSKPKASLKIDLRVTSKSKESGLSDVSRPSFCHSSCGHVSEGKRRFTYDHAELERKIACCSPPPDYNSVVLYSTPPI

Tie2(Y897S)(h) (human) = Tie2(Y897S)(h) (human) (UniProt Q02763)
Sequence of Tie2(Y897S)(h) (human) (Q02763 771-1124 Y897S limits assumed): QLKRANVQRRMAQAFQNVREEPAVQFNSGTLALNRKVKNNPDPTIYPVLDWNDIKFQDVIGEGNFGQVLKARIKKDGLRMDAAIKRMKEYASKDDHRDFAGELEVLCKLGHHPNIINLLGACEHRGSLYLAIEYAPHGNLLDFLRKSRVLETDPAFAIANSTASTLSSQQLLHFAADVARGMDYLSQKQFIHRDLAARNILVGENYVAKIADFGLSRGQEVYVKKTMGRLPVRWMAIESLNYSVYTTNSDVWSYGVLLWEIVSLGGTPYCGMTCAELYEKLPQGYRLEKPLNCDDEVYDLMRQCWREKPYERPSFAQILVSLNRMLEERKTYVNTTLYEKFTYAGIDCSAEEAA

Sequence of cKit(V654A)(h) (human) (P10721 544-976 V654A): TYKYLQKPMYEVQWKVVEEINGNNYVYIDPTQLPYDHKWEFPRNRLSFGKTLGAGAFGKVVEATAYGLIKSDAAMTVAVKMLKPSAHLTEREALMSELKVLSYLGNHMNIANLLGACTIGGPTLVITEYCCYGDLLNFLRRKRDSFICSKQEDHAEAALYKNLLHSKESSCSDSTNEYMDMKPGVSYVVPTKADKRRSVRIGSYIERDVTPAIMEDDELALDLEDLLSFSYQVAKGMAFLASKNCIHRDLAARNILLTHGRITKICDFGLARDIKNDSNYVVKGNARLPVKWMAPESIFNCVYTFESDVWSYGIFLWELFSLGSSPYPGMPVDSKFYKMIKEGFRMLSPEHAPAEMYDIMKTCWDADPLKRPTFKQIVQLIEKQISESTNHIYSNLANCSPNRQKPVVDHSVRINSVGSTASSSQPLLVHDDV
Sequence of FGFR4(h) (human) (P22455 442-753 limits assumed): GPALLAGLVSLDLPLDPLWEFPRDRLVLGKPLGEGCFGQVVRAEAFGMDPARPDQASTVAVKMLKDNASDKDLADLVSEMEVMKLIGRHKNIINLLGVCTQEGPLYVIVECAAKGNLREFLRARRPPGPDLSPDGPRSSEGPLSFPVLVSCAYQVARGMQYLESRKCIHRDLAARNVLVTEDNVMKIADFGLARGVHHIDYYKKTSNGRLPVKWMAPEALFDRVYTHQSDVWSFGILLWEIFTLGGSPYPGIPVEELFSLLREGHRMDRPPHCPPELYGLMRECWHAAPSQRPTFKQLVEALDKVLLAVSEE
Sequence of PKBγ(h) (human) (Q9Y243 whole entry): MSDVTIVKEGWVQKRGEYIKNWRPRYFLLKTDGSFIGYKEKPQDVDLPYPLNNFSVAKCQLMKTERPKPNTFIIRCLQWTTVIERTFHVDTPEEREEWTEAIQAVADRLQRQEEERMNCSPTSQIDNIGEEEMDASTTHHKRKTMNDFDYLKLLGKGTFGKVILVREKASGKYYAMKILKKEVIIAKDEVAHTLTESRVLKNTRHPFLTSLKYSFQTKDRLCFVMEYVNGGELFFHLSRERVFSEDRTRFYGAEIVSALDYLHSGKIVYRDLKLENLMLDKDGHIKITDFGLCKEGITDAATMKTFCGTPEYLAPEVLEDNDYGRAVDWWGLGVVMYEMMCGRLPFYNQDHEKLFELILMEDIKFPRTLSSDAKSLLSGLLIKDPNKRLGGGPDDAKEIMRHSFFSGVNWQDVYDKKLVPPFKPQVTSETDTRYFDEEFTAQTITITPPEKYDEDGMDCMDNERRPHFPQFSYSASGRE
Sequence of EphA4(h) (human) (P54764 570-986 limits assumed): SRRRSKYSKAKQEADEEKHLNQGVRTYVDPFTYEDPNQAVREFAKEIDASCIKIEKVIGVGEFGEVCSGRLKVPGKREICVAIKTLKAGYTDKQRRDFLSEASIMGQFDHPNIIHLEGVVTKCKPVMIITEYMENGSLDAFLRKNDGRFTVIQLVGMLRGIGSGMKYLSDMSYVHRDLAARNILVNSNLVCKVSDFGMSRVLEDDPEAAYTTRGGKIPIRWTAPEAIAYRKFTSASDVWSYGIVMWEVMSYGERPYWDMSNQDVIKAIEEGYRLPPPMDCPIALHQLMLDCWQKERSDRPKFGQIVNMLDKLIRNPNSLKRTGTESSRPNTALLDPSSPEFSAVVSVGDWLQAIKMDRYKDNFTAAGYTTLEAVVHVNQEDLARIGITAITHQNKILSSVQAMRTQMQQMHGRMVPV
Sequence of Ros(h) (human) (P08922 1883-2347 limits assumed): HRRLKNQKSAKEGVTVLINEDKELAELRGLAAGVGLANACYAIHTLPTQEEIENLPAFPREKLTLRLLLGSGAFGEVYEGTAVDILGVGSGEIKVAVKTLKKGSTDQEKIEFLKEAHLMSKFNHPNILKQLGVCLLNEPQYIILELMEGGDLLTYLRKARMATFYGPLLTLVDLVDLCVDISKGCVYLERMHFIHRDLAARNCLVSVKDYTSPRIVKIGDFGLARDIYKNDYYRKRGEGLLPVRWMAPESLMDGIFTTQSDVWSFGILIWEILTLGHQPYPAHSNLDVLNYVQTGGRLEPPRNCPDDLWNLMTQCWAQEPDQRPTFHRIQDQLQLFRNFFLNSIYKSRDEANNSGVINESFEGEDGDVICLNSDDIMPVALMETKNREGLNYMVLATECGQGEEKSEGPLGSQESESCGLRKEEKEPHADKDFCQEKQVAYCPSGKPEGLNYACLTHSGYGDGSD
Sequence of Met(h) (human) (P08581 956-1390 limits assumed): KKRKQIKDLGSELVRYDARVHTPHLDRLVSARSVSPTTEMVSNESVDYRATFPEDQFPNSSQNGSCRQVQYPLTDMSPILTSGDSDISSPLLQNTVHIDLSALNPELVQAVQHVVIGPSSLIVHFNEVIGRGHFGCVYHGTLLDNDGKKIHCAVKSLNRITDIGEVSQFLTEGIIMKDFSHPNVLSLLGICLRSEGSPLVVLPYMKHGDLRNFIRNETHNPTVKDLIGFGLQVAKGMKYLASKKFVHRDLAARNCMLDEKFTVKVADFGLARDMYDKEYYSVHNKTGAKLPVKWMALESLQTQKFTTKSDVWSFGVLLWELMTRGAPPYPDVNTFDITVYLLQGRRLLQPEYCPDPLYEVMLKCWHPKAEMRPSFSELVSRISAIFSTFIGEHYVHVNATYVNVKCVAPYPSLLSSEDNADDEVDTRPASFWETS

| Substance | % activity at 100 µM (MuSK(h) (human)) [%] | % activity at 100 µM (Met(h) (human)) [%] | % activity at 100 µM (LIMK1(h) (human)) [%] | % activity at 100 µM (PKCι(h) (human)) [%] | % activity at 100 µM (cKit(V654A)(h) (human)) [%] | % activity at 100 µM [1] [%] | % activity at 100 µM (Flt3(h) (human)) [%] | % activity at 100 µM (Ros(h) (human)) [%] | % activity at 100 µM (EphA4(h) (human)) [%] | % activity at 100 µM (CaMKI(h) (human)) [%] | % activity at 100 µM (Plk3(h) (human)) [%] | % activity at 100 µM (TAO3(h) (human)) [%] | % activity at 100 µM (Ret(h) (human)) [%] | % activity at 100 µM (FGFR4(h) (human)) [%] | % activity at 100 µM (PKBγ(h) (human)) [%] | % activity at 100 µM (NEK3(h) (human)) [%] | % activity at 100 µM (Flt1(h) (human)) [%] | % activity at 100 µM (Tie2(Y897S)(h) (human)) [%] |
| --- | --- | --- | --- | --- | --- | --- | --- | --- | --- | --- | --- | --- | --- | --- | --- | --- | --- | --- |
| MMI-0300 (peptide) | 93 | 65 | 88 | 68 | 134 | 85 | 84 | 95 | 88 | 1 | 127 | 77 | 140 | 28 | 20 | 92 | 69 | 83 |
| MMI-0400 (peptide) | 93 | 62 | 92 | 46 | 150 | 78 | 18 | 99 | 65 | 0 | 129 | 67 | 145 | 19 | 41 | 85 | 48 | 87 |
| MMI-0500 (peptide) | 27 | 27 | 87 | 7 | 223 | 53 | 17 | 150 | 48 | -1 | 122 | 12 | 174 | 3 | 20 | 20 | 27 | 80 |
